Data taken from patent publication US20150344570A1 (published 2015).

T1: FcγRIIa R (human, UniProt P12318 34-217)
T1 construct: extracellular domain; also called FcgRIIa R type; 2aR
T1 sequence (looked up): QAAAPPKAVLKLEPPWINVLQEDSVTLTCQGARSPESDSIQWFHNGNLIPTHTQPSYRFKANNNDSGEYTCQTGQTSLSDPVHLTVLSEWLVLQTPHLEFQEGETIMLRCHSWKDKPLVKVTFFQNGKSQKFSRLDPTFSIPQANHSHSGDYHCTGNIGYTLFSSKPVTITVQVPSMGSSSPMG


Target: T1, FcγRIIa R
Assay: SPR (Biacore), captured antibody, FcγR as analyte; relative binding activity
Method: Analysis of interaction between objective antibody and the FcγR was carried out using Biacore T100 (GE Healthcare). HBS-EP+ (GE Healthcare) was used as the running buffer, and the measurement temperature was set to 25° C. Chips produced by immobilizing the antigen peptide by the amine coupling method to a Series S Sencor Chip CM5 (GE Healthcare), or alternatively, chips produced by allowing preliminarily biotinylated antigen peptides to interact with and immobilize onto a Series S Sensor Chip SA (certified) (GE Healthcare) were used. Antibodies of interest were captured onto an antigen peptide-immobilized chip, and allowed to interact to each FcγR diluted with running buffer. To regenerate and repeatedly use the chip, the antibodies captured on the chip were washed off by reacting 10 mM glycine-HCl, pH 1.5.

Ho/Con_2aR	Binder
133 % (GpH7-B3/GpL16-k0 = 100)	GpH7-B3 variant K326_04F/GpL16-k0 (antibody, human IgG1, kappa, also called Ho Ab K326_04F) heavy: not shown light: DIVMTQSPLSLPVTPGEPASISCQASESLVHSNRNTYLHWYLQKPGQSPQLLIYKVSNRFSGVPDRFSGSGSGTDFTLKISRVEAEDVGVYYCSQNTHVPPTFGQGTKVEIERTVAAPSVFIFPPSDEQLKSGTASVVCLLNNFYPREAKVQWKVDNALQSGNSQESVTEQDSKDSTYSLSSTLTLSKADYEKHKVYACEVTHQGLSSPVTKSFNRGEC
53.8 % (GpH7-B3/GpL16-k0 = 100)	GpH7-B3 variant L234_20W/GpL16-k0 (antibody, human IgG1, kappa, also called Ho Ab L234_20W) heavy: not shown light: DIVMTQSPLSLPVTPGEPASISCQASESLVHSNRNTYLHWYLQKPGQSPQLLIYKVSNRFSGVPDRFSGSGSGTDFTLKISRVEAEDVGVYYCSQNTHVPPTFGQGTKVEIERTVAAPSVFIFPPSDEQLKSGTASVVCLLNNFYPREAKVQWKVDNALQSGNSQESVTEQDSKDSTYSLSSTLTLSKADYEKHKVYACEVTHQGLSSPVTKSFNRGEC
106 % (GpH7-B3/GpL16-k0 = 100)	GpH7-B3 variant K334_10E/GpL16-k0 (antibody, human IgG1, kappa, also called Ho Ab K334_10E) heavy: not shown light: DIVMTQSPLSLPVTPGEPASISCQASESLVHSNRNTYLHWYLQKPGQSPQLLIYKVSNRFSGVPDRFSGSGSGTDFTLKISRVEAEDVGVYYCSQNTHVPPTFGQGTKVEIERTVAAPSVFIFPPSDEQLKSGTASVVCLLNNFYPREAKVQWKVDNALQSGNSQESVTEQDSKDSTYSLSSTLTLSKADYEKHKVYACEVTHQGLSSPVTKSFNRGEC
43.3 % (GpH7-B3/GpL16-k0 = 100)	GpH7-B3 variant L234_04F/GpL16-k0 (antibody, human IgG1, kappa, also called Ho Ab L234_04F) heavy: not shown light: DIVMTQSPLSLPVTPGEPASISCQASESLVHSNRNTYLHWYLQKPGQSPQLLIYKVSNRFSGVPDRFSGSGSGTDFTLKISRVEAEDVGVYYCSQNTHVPPTFGQGTKVEIERTVAAPSVFIFPPSDEQLKSGTASVVCLLNNFYPREAKVQWKVDNALQSGNSQESVTEQDSKDSTYSLSSTLTLSKADYEKHKVYACEVTHQGLSSPVTKSFNRGEC
110 % (GpH7-B3/GpL16-k0 = 100)	GpH7-B3 variant K334_04F/GpL16-k0 (antibody, human IgG1, kappa, also called Ho Ab K334_04F) heavy: not shown light: DIVMTQSPLSLPVTPGEPASISCQASESLVHSNRNTYLHWYLQKPGQSPQLLIYKVSNRFSGVPDRFSGSGSGTDFTLKISRVEAEDVGVYYCSQNTHVPPTFGQGTKVEIERTVAAPSVFIFPPSDEQLKSGTASVVCLLNNFYPREAKVQWKVDNALQSGNSQESVTEQDSKDSTYSLSSTLTLSKADYEKHKVYACEVTHQGLSSPVTKSFNRGEC
102 % (GpH7-B3/GpL16-k0 = 100)	GpH7-B3 variant K334_05P/GpL16-k0 (antibody, human IgG1, kappa, also called Ho Ab K334_05P) heavy: not shown light: DIVMTQSPLSLPVTPGEPASISCQASESLVHSNRNTYLHWYLQKPGQSPQLLIYKVSNRFSGVPDRFSGSGSGTDFTLKISRVEAEDVGVYYCSQNTHVPPTFGQGTKVEIERTVAAPSVFIFPPSDEQLKSGTASVVCLLNNFYPREAKVQWKVDNALQSGNSQESVTEQDSKDSTYSLSSTLTLSKADYEKHKVYACEVTHQGLSSPVTKSFNRGEC
95.7 % (GpH7-B3/GpL16-k0 = 100)	GpH7-B3 variant K326_12R/GpL16-k0 (antibody, human IgG1, kappa, also called Ho Ab K326_12R) heavy: not shown light: DIVMTQSPLSLPVTPGEPASISCQASESLVHSNRNTYLHWYLQKPGQSPQLLIYKVSNRFSGVPDRFSGSGSGTDFTLKISRVEAEDVGVYYCSQNTHVPPTFGQGTKVEIERTVAAPSVFIFPPSDEQLKSGTASVVCLLNNFYPREAKVQWKVDNALQSGNSQESVTEQDSKDSTYSLSSTLTLSKADYEKHKVYACEVTHQGLSSPVTKSFNRGEC
113 % (GpH7-B3/GpL16-k0 = 100)	GpH7-B3 variant K326_18N/GpL16-k0 (antibody, human IgG1, kappa, also called Ho Ab K326_18N) heavy: not shown light: DIVMTQSPLSLPVTPGEPASISCQASESLVHSNRNTYLHWYLQKPGQSPQLLIYKVSNRFSGVPDRFSGSGSGTDFTLKISRVEAEDVGVYYCSQNTHVPPTFGQGTKVEIERTVAAPSVFIFPPSDEQLKSGTASVVCLLNNFYPREAKVQWKVDNALQSGNSQESVTEQDSKDSTYSLSSTLTLSKADYEKHKVYACEVTHQGLSSPVTKSFNRGEC
110 % (GpH7-B3/GpL16-k0 = 100)	GpH7-B3 variant K334_12R/GpL16-k0 (antibody, human IgG1, kappa, also called Ho Ab K334_12R) heavy: not shown light: DIVMTQSPLSLPVTPGEPASISCQASESLVHSNRNTYLHWYLQKPGQSPQLLIYKVSNRFSGVPDRFSGSGSGTDFTLKISRVEAEDVGVYYCSQNTHVPPTFGQGTKVEIERTVAAPSVFIFPPSDEQLKSGTASVVCLLNNFYPREAKVQWKVDNALQSGNSQESVTEQDSKDSTYSLSSTLTLSKADYEKHKVYACEVTHQGLSSPVTKSFNRGEC
105 % (GpH7-B3/GpL16-k0 = 100)	GpH7-B3 variant K334_08L/GpL16-k0 (antibody, human IgG1, kappa, also called Ho Ab K334_08L) heavy: not shown light: DIVMTQSPLSLPVTPGEPASISCQASESLVHSNRNTYLHWYLQKPGQSPQLLIYKVSNRFSGVPDRFSGSGSGTDFTLKISRVEAEDVGVYYCSQNTHVPPTFGQGTKVEIERTVAAPSVFIFPPSDEQLKSGTASVVCLLNNFYPREAKVQWKVDNALQSGNSQESVTEQDSKDSTYSLSSTLTLSKADYEKHKVYACEVTHQGLSSPVTKSFNRGEC
134 % (GpH7-B3/GpL16-k0 = 100)	GpH7-B3 variant K326_15Y/GpL16-k0 (antibody, human IgG1, kappa, also called Ho Ab K326_15Y) heavy: not shown light: DIVMTQSPLSLPVTPGEPASISCQASESLVHSNRNTYLHWYLQKPGQSPQLLIYKVSNRFSGVPDRFSGSGSGTDFTLKISRVEAEDVGVYYCSQNTHVPPTFGQGTKVEIERTVAAPSVFIFPPSDEQLKSGTASVVCLLNNFYPREAKVQWKVDNALQSGNSQESVTEQDSKDSTYSLSSTLTLSKADYEKHKVYACEVTHQGLSSPVTKSFNRGEC
120 % (GpH7-B3/GpL16-k0 = 100)	GpH7-B3 variant K326_20W/GpL16-k0 (antibody, human IgG1, kappa, also called Ho Ab K326_20W) heavy: not shown light: DIVMTQSPLSLPVTPGEPASISCQASESLVHSNRNTYLHWYLQKPGQSPQLLIYKVSNRFSGVPDRFSGSGSGTDFTLKISRVEAEDVGVYYCSQNTHVPPTFGQGTKVEIERTVAAPSVFIFPPSDEQLKSGTASVVCLLNNFYPREAKVQWKVDNALQSGNSQESVTEQDSKDSTYSLSSTLTLSKADYEKHKVYACEVTHQGLSSPVTKSFNRGEC
42.8 % (GpH7-B3/GpL16-k0 = 100)	GpH7-B3 variant L234_09D/GpL16-k0 (antibody, human IgG1, kappa, also called Ho Ab L234_09D) heavy: not shown light: DIVMTQSPLSLPVTPGEPASISCQASESLVHSNRNTYLHWYLQKPGQSPQLLIYKVSNRFSGVPDRFSGSGSGTDFTLKISRVEAEDVGVYYCSQNTHVPPTFGQGTKVEIERTVAAPSVFIFPPSDEQLKSGTASVVCLLNNFYPREAKVQWKVDNALQSGNSQESVTEQDSKDSTYSLSSTLTLSKADYEKHKVYACEVTHQGLSSPVTKSFNRGEC
106 % (GpH7-B3/GpL16-k0 = 100)	GpH7-B3 variant K334_13S/GpL16-k0 (antibody, human IgG1, kappa, also called Ho Ab K334_13S) heavy: not shown light: DIVMTQSPLSLPVTPGEPASISCQASESLVHSNRNTYLHWYLQKPGQSPQLLIYKVSNRFSGVPDRFSGSGSGTDFTLKISRVEAEDVGVYYCSQNTHVPPTFGQGTKVEIERTVAAPSVFIFPPSDEQLKSGTASVVCLLNNFYPREAKVQWKVDNALQSGNSQESVTEQDSKDSTYSLSSTLTLSKADYEKHKVYACEVTHQGLSSPVTKSFNRGEC
108 % (GpH7-B3/GpL16-k0 = 100)	GpH7-B3 variant K334_19Q/GpL16-k0 (antibody, human IgG1, kappa, also called Ho Ab K334_19Q) heavy: not shown light: DIVMTQSPLSLPVTPGEPASISCQASESLVHSNRNTYLHWYLQKPGQSPQLLIYKVSNRFSGVPDRFSGSGSGTDFTLKISRVEAEDVGVYYCSQNTHVPPTFGQGTKVEIERTVAAPSVFIFPPSDEQLKSGTASVVCLLNNFYPREAKVQWKVDNALQSGNSQESVTEQDSKDSTYSLSSTLTLSKADYEKHKVYACEVTHQGLSSPVTKSFNRGEC
133 % (GpH7-B3/GpL16-k0 = 100)	GpH7-B3 variant K326_07I/GpL16-k0 (antibody, human IgG1, kappa, also called Ho Ab K326_07I) heavy: not shown light: DIVMTQSPLSLPVTPGEPASISCQASESLVHSNRNTYLHWYLQKPGQSPQLLIYKVSNRFSGVPDRFSGSGSGTDFTLKISRVEAEDVGVYYCSQNTHVPPTFGQGTKVEIERTVAAPSVFIFPPSDEQLKSGTASVVCLLNNFYPREAKVQWKVDNALQSGNSQESVTEQDSKDSTYSLSSTLTLSKADYEKHKVYACEVTHQGLSSPVTKSFNRGEC
131 % (GpH7-B3/GpL16-k0 = 100)	GpH7-B3 variant K326_08L/GpL16-k0 (antibody, human IgG1, kappa, also called Ho Ab K326_08L) heavy: not shown light: DIVMTQSPLSLPVTPGEPASISCQASESLVHSNRNTYLHWYLQKPGQSPQLLIYKVSNRFSGVPDRFSGSGSGTDFTLKISRVEAEDVGVYYCSQNTHVPPTFGQGTKVEIERTVAAPSVFIFPPSDEQLKSGTASVVCLLNNFYPREAKVQWKVDNALQSGNSQESVTEQDSKDSTYSLSSTLTLSKADYEKHKVYACEVTHQGLSSPVTKSFNRGEC
96.4 % (GpH7-B3/GpL16-k0 = 100)	GpH7-B3 variant K334_20W/GpL16-k0 (antibody, human IgG1, kappa, also called Ho Ab K334_20W) heavy: not shown light: DIVMTQSPLSLPVTPGEPASISCQASESLVHSNRNTYLHWYLQKPGQSPQLLIYKVSNRFSGVPDRFSGSGSGTDFTLKISRVEAEDVGVYYCSQNTHVPPTFGQGTKVEIERTVAAPSVFIFPPSDEQLKSGTASVVCLLNNFYPREAKVQWKVDNALQSGNSQESVTEQDSKDSTYSLSSTLTLSKADYEKHKVYACEVTHQGLSSPVTKSFNRGEC
100 % (GpH7-B3/GpL16-k0 = 100)	GpH7-B3 variant K334_02A/GpL16-k0 (antibody, human IgG1, kappa, also called Ho Ab K334_02A) heavy: not shown light: DIVMTQSPLSLPVTPGEPASISCQASESLVHSNRNTYLHWYLQKPGQSPQLLIYKVSNRFSGVPDRFSGSGSGTDFTLKISRVEAEDVGVYYCSQNTHVPPTFGQGTKVEIERTVAAPSVFIFPPSDEQLKSGTASVVCLLNNFYPREAKVQWKVDNALQSGNSQESVTEQDSKDSTYSLSSTLTLSKADYEKHKVYACEVTHQGLSSPVTKSFNRGEC
39.9 % (GpH7-B3/GpL16-k0 = 100)	GpH7-B3 variant L234_10E/GpL16-k0 (antibody, human IgG1, kappa, also called Ho Ab L234_10E) heavy: not shown light: DIVMTQSPLSLPVTPGEPASISCQASESLVHSNRNTYLHWYLQKPGQSPQLLIYKVSNRFSGVPDRFSGSGSGTDFTLKISRVEAEDVGVYYCSQNTHVPPTFGQGTKVEIERTVAAPSVFIFPPSDEQLKSGTASVVCLLNNFYPREAKVQWKVDNALQSGNSQESVTEQDSKDSTYSLSSTLTLSKADYEKHKVYACEVTHQGLSSPVTKSFNRGEC
